Experimental data reported in patent US11827690B2, “ApoC-II mimetic peptides” (THE UNITED STATES OF AMERICA, as represented by the …, priority 2017, dated 2023).
Non-standard residues stand in square brackets, D forms with d. No end group written: not given here. *: point of attachment. Stearoyl = CCCCCCCCCCCCCCCCCC(=O)*; Nle = CCCC[C@H](N)C(=O)O

Columns and labels:
[1] = target: T1, LPL inhibited by apoC-III (Bos taurus, UniProt P11151); experiment: LPL activation assay with Intralipid as substrate and recombinant apoC-III as an inhibitor; format: biochemical; details: Intralipid substrate, FIG. 31
T1 sequence (P11151 29-478): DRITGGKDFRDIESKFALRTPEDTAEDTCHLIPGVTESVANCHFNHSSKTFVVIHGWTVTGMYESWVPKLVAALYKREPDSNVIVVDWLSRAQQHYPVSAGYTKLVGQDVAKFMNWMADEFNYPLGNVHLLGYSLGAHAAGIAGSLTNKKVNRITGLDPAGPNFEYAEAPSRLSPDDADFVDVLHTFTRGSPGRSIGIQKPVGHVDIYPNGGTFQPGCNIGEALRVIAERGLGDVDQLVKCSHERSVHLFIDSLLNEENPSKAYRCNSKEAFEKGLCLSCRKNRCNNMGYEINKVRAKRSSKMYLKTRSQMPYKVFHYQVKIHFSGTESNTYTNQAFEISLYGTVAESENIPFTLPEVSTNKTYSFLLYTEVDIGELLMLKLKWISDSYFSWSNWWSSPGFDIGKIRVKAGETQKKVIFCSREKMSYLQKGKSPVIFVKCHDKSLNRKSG
Experimental: (§1) LPL activity assay: 10 μL of Intralipid, human plasma sample, or mouse plasma sample was added in each well using repeater pipette. 10 μL (or 15 μL in the wells with no LPL control) of PBS and 10 μL of 1% BSA was added in each well using repeater pipette. 10 μL of peptides were added to corresponding wells in vertical triplicates (lowest concentration is on a left, highest is on the right). The plate was spun down at 1000 RPM for 10 seconds to mix and to remove the solutions from the wall of each well. The plate was put on ice and 5 μL of LPL was added using repeater pipette. The plate was spun down again at 1000 RPM for 10 seconds. The plate was covered and put back on ice for an incubation of 30 min. The plate was then moved to 37° C. and incubated for 1 hour.
(§2) Free fatty acids (NEFA) assay: 45 μL of 5 nmoL standard and 0 nmoL control (0.2% BSA) were added to corresponding wells. 225 μL of reagent A was added in each well using the reagent tray and 12-channel pipette. The plate was incubated for 10 min before 75 μL of reagent B was added to each well using the reagent tray and 12-channel pipette. The plate was not covered due to the high volume. The absorbance at 550 nm and 660 nm was measured.
(§3) LPL assay was performed using Intralipid, high TG human plasma (1:50 dilution), or apoC-III transgenic mouse plasma (1:50 dilution). When Intralipid was used as a substrate, 25 or 50 μM recombinant ApoC-III was added as an inhibitor. When the high TG human plasma was used as a substrate, 25 or 50 μM recombinant ApoC-III was added as an inhibitor with or without pre-incubation at 37° C. for 1 hour. An apoC-II mimetic peptide was added at various concentrations.

[2] = target: T1, LPL inhibited by apoC-III; experiment: LPL activation assay with high TG human plasma as substrate and recombinant apoC-III as an inhibitor; format: biochemical; details: 50 μM apoC-III added; from about 3.2 μM without; plasma 1:50 dilution
Experimental: as §1, §2, §3

[3] = target: T1, LPL inhibited by apoC-III; experiment: LPL assay using human apoC-II deficient plasma as substrate with recombinant apoC-III; format: biochemical; details: 25 μM apoC-III added; from about 1.5 μM without
Experimental: as §1, §2, §3

C57BL/6 mice (wild-type) = experiment: post-prandial serum TG in C57BL/6 mice after oral gavage with vegetable oil; format: in vivo; details: intraperitoneally injected 30 min before gavage, FIG. 20
Experimental: (§4) C57Bl/6 mice (wild-type), apoC-II knockout (apoC-II KO) mice, and apoC-III transgenic mice were used for in vivo study. The C57Bl/6 mice (wild-type) were purchased from Taconic Biosciences Inc. The apoC-II KO mice were created as described in Sakurai et al., J Pharmacol Exp Ther 356:341-353, 2016. The apoC-III transgenic mice were generated by overexpressing human apoC-III in C57Bl/6 mice. See Qu et al., J. Lipid Res. 48:1476-1487, 2007.
(§5) Mice were fasted overnight (approximately 12 hours) before the study and 6 hours during the study, the next day. The apoC-II mimetic peptides were synthetically produced and free of biological contamination (not available as FDA approved compounds/treatment). Peptides were produced and used in sterile conditions and filtered by 0.2 nm filter before injections in a single dose 1-10 μmol/kg body weight (B. W.) administered either subcutaneous injection (S.Q. or S.C.), intraperitoneal injection (I.P.) or intravenous injection (I.V.) (in a sterile, pharmaceutical grade PBS solution at a volume ≤200 μL) as described in Sakurai et al., J Pharmacol Exp Ther 356:341-353, 2016.
(§6) In some experiments, each animal received 20% Intralipid (FDA approved, Fresenius Kabi, Uppsala, Sweden) in a single dose either by oral gavage (using special sterile single-use non-toxic animal feeding needles) in a dose 10-20 μL/gram body weight (B.W.) (Tuzcu et al. Drug Chem Toxicol 37: 261-267, 2014; Kusminski et al. Nature Medicine 18: 1539-1549, 2012), or by intraperitoneal injection in a single bolus of 0.1-1.0 mL (Mahadero et al. American J Surgery 164: 45-50, 1992), or by intragastric administration of a dietetic commercially-available liquid oil (food grade vegetable, corn, soy or olive oil) in a single dose 10-20 μL/gram body weight. These oils were a source of TG—when absorbed TG tends to be broken down within 3 h (peak in 30 min) (Kritchevsky Nutritional Biochemistry 6:172-178, 1995). Blood samples (20-30 μL) were obtained from the retro-orbital plexus at time points: −1 h, 0 h, 1 h, 3 h, 6 h and 24 h for measurements of lipids. Mice were returned to metabolic cages after the 6 h time point where the food was put back. Once the study was completed (after 24 hours from the fat administration), mice were euthanized and organs collected.

apoC-II knockout mice = experiment: plasma lipids of apoC-II knockout mice after peptide injection; format: in vivo
Experimental: as §4
as §5, with “Peptides were produced and used in sterile conditions and filtered by 0.2 nm filter before injections in a single dose 1-10 μmol/kg body weight (B.” left out

bovine LPL [4] = target: T2, bovine LPL (Bos taurus, UniProt P11151); experiment: in vitro LPL assay using Intralipid as substrate; format: biochemical; details: concentrations of between about 1 nM to about 10 μM, FIG. 7
T2 sequence (P11151 29-478): T1 sequence (P11151 29-478)
Experimental: (§7) Preparation of LPL: frozen stock of 10 μL of 0.5 mg/mL bovine LPL was used and diluted 1:100 (10 μL+990 μL of PBS).
(§8) Preparation of 20% Intralipid: 2000 mg/dL TG Intralipid was used to prepare 3 mg/dL TG Intralipid by diluting 1.5 μL of the stock with 998.5 μL PBS, or by diluting the stock 1:10 first and then mixing 15 μL of the diluted stock with 985 μL PBS. When apoC-II deficient human serum was used as a substrate, a frozen 10 μL aliquot of 1711 mg/dL (TG) was diluted by adding 990 μL PBS (1:100 dilution).
(§9) Preparation of free fatty acid (NEFA) assay: NEFA reagents were purchased from Wako Diagnostics, Wako Life Sciences, Inc. Reagent A was prepared by mixing Coloring Reagent A with Solvent A (225 μL per well). Reagent B was prepared by mixing Coloring Reagent B with Solvent B (75 μL per well). 5 nmoL oleic acid standard was prepared by diluting 20 μL of 1 mM oleic acid stock (WAKO NEFA standard solution) with 180 μL of 0.2% BSA.
LPL activity assay: 10 μL of Intralipid, human plasma sample, or mouse plasma sample was added in each well using repeater pipette. 10 μL (or 15 μL in the wells with no LPL control) of PBS and 10 μL of 1% BSA was added in each well using repeater pipette. […]
Free fatty acids (NEFA) assay: 45 μL of 5 nmoL standard and 0 nmoL control (0.2% BSA) were added to corresponding wells. […] The absorbance at 550 nm and 660 nm was measured.

bovine LPL [5] = target: T2, bovine LPL; experiment: in vitro LPL assay using apoC-II deficient patient sera as substrate; format: biochemical; details: for promoting TG hydrolysis in the presence of LPL / efficiency compared with native apoC-II protein: FIG. 6; for efficiency compared with native apoC-II protein: at lower concentrations; for TG hydrolysis: concentrations from 100 pM to 10 μM, FIG. 12; for TG clearance ability compared with Delta4: FIG. 10
Experimental: as §7, §8, §9, §1, §2

bovine LPL [6] = target: T2, bovine LPL; experiment: in vitro LPL assay using hypertriglyceridemia patient sera as substrate; format: biochemical; details: sera of patients with high levels of apoC-III protein, FIG. 27
Experimental: as §7, §9, §1, §2

wild-type mice = experiment: serum TG of wild-type mice after Intralipid injection with or without LPL inhibitor Triton WR1339; format: in vivo; details: co-injection with Intralipid, 6 h time point
Experimental: as §6
The ability of apolipoprotein mimetic peptides to normalize hypertriglyceridemia in mice treated with an LPL inhibitor, Tyloxapol, in presence of high TG provided by 20% Intralipid, was assessed.
Mice were fasted overnight (approximately 12 hours) before the study and 6 hours during the study, the next day. The apo mimetic peptides were synthetically produced and free of biological contamination (not available as FDA approved compounds/treatment). Peptides were produced and used in sterile conditions and filtered by 0.2 nm filter before injections in a single dose 1-5 μmol/kg B.W. either S.C. or I.P. or I.V. (in a sterile, pharmaceutical grade PBS solution at a volume ≤200 μL). Next, 10% Tyloxapol (Triton WR-1339, T-0307, Sigma-Aldrich) was injected I.V. in a single dose of 5 μL/gram B.W., as described earlier (Zhang Y. L. et al., J Biol Chem. 279: 19362-19374, 2004; Abe C. et al., J. Nutr. 137: 345-350, 2007). […] Finally, each animal received 20% Intralipid (FDA approved, Fresenius Kabi, Uppsala, Sweden) in a single dose either by oral gavage (using special sterile single-use non-toxic animal feeding needles)—in a dose 10-20 μL/gram B.W. (Tuzcu K. et al., Drug Chem Toxicol., 37: 261-267, 2014, Kusminski C. et al., Nature Medicine. 18: 1539-1549, 2012), or by intraperitoneal injection—in a single bolus of 0.1-1.0 mL (Mahadero G. et al., American J Surgery. 164: 45-50, 1992). Blood samples (20-30 μL) were obtained from the retro-orbital plexus at time points: −1 h, 0 h, 1 h, 3 h, 6 h and 24 h for measurements of lipids. Mice were returned to metabolic cages after the 6 h time point where the food was put back. Once the study was completed (after 24 hours from the Intralipid administration), mice were euthanized and organs collected.

| Substance | serum TG increase after vegetable oil gavage (C57BL/6 mice (wild-type)) | efficiency compared with native apoC-II protein (bovine LPL [4]) | promoting TG hydrolysis in the presence of LPL (bovine LPL [5]) | efficiency compared with native apoC-II protein (bovine LPL [5]) | TG hydrolysis (bovine LPL [5]) | TG clearance ability compared with Delta4 (bovine LPL [5]) | other results |
| --- | --- | --- | --- | --- | --- | --- | --- |
| apoC-III recombinant protein: recombinant ApoC-III added as an inhibitor in the LPL assay | – | – | – | – | – | – | effect on production of free fatty acid (NEFA) [1]: inhibited the production of free fatty acid (NEFA); free fatty acid (NEFA) production [2]: about 1.7 μM; free fatty acid (NEFA) production [3]: about 0.8 μM |
| DYLKAVFEKLRDLYSKFTAAnLSTYTGIFTDQVLSVLKGEE (DYLKAVFEKLRDLYSKFTAA[Nle]STYTGIFTDQVLSVLKGEE) [Delta4] | the TG increase was significantly reduced | worked more efficiently than the native apoC-II protein | capable of promoting TG hydrolysis in the presence of LPL | worked more efficiently than the native apoC-II protein | promoted TG hydrolysis in a dose-dependent manner | – | plasma TG (apoC-II knockout mice; intraperitoneal injection): marked reduction of plasma TG; total cholesterol level (apoC-II knockout mice; intraperitoneal injection): decrease in total cholesterol level; time of maximum decrease of plasma TG (apoC-II knockout mice; intraperitoneal injection, FIG. 18): about 3 hours; plasma TG (apoC-II knockout mice; subcutaneous injection): rapid and marked reduction of plasma TG; total cholesterol level (apoC-II knockout mice; subcutaneous injection): decrease in total cholesterol level; LPL activity (bovine LPL [6]): increased the LPL activity |
| DYLKEVFEKLRDLYSKFTAAnLSTYTGIFTDQVLSVLKGEE (DYLKEVFEKLRDLYSKFTAA[Nle]STYTGIFTDQVLSVLKGEE) [Delta5] | – | worked more efficiently than the native apoC-II protein | capable of promoting TG hydrolysis in the presence of LPL | worked more efficiently than the native apoC-II protein | – | – | – |
| DYLKAVFEKLRDLYSKFTPAMSTYTGIFTDQVLSVLKGEE [Delta4b] | the TG increase was significantly reduced | – | – | – | promoted TG hydrolysis in a dose-dependent manner | enhanced the TG clearance ability of the exemplary apoC-II mimetic peptide Delta4 | – |
| Tyloxapol [Triton, reference compound] | – | – | – | – | – | – | increase of serum TG level (wild-type mice): more than 1000 fold |
| DYLKAVFEKLRDLYSKKC18TPAMSTYTGIFTDQVLSVLKGEE (DYLKAVFEKLRDLYSKK(Stearoyl)TPAMSTYTGIFTDQVLSVLKGEE) [Delta4b-3] | the TG increase was significantly reduced | – | – | – | promoted TG hydrolysis in a dose-dependent manner | enhanced the TG clearance ability of the exemplary apoC-II mimetic peptide Delta4 | – |
